Consider four molecules from article PMC5794975, “Mapping the interaction site and effect of the Siglec-9 inflammatory biomarker on human primary amine oxidase” (Scientific Reports, 2018).

In this assay the target is T1, Human primary amine oxidase (hAOC3), recombinant (human, UniProt Q16853 1-763, topaquinone (TPQ; 2,4,5-trihydroxyphenylalanine quinone, a post-translationally modified tyrosine); N-glycans at Asn137, Asn232, Asn294, Asn592, Asn618, Asn666).
T1 sequence (looked up): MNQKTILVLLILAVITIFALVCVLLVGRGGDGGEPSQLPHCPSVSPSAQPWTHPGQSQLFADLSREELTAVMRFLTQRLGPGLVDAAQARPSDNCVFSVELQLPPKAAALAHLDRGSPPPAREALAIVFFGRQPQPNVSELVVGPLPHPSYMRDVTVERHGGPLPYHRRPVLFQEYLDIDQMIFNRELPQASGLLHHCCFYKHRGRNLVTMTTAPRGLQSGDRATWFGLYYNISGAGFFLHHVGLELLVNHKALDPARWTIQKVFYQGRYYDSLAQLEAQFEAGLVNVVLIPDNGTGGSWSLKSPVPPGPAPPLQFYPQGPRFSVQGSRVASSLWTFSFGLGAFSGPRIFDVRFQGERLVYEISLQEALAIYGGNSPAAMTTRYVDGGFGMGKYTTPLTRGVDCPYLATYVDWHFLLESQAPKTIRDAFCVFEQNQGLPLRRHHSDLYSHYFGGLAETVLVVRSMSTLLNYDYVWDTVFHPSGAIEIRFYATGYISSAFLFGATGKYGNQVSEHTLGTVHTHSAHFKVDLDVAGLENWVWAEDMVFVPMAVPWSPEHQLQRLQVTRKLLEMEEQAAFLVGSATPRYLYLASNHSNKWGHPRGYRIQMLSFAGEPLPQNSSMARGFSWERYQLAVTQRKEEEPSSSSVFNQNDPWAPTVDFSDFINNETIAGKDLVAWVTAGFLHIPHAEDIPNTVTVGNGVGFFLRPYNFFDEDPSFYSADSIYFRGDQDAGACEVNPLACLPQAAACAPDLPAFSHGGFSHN
The assay can be described thus: cell-based or functional assay.

Bridges are numbered along the chain shown (N, C = ends). Where no end group is shown, it is not given here.

In the case of CARLSLSWRGLTLCPSK (disulfide 1-14) [cyclic Siglec-9 peptide (CARLSLSWRGLTLCPSK)], the “activity of hAOC3-expressing CHO cells towards [7-14C]benzylamine with 5 µM peptide, percent of the control without peptide” value came out at 127%.
As to CAALSLSWAGLTLCPSK (disulfide 1-14) [R3A/R9A Siglec-9 peptide (CAALSLSWAGLTLCPSK)], the “activity of hAOC3-expressing CHO cells towards [7-14C]benzylamine with 5 µM peptide, percent of the control without peptide” value was 158%.
As for CARLSLSWAGLTLCPSK (disulfide 1-14) [R9A Siglec-9 peptide (CARLSLSWAGLTLCPSK)], the figure is 126%.
With CAALSLSWRGLTLCPSK (disulfide 1-14) [R3A Siglec-9 peptide (CAALSLSWRGLTLCPSK)] the figure was 139%.
